Experimental data taken from patent US20250092426, “CAS ENDONUCLEASES AND RELATED METHODS” (Flagship Pioneering Innovations VII, LLC, published 2025).

Target: T1, CasEnd-1 (synthetic construct)
T1 chain: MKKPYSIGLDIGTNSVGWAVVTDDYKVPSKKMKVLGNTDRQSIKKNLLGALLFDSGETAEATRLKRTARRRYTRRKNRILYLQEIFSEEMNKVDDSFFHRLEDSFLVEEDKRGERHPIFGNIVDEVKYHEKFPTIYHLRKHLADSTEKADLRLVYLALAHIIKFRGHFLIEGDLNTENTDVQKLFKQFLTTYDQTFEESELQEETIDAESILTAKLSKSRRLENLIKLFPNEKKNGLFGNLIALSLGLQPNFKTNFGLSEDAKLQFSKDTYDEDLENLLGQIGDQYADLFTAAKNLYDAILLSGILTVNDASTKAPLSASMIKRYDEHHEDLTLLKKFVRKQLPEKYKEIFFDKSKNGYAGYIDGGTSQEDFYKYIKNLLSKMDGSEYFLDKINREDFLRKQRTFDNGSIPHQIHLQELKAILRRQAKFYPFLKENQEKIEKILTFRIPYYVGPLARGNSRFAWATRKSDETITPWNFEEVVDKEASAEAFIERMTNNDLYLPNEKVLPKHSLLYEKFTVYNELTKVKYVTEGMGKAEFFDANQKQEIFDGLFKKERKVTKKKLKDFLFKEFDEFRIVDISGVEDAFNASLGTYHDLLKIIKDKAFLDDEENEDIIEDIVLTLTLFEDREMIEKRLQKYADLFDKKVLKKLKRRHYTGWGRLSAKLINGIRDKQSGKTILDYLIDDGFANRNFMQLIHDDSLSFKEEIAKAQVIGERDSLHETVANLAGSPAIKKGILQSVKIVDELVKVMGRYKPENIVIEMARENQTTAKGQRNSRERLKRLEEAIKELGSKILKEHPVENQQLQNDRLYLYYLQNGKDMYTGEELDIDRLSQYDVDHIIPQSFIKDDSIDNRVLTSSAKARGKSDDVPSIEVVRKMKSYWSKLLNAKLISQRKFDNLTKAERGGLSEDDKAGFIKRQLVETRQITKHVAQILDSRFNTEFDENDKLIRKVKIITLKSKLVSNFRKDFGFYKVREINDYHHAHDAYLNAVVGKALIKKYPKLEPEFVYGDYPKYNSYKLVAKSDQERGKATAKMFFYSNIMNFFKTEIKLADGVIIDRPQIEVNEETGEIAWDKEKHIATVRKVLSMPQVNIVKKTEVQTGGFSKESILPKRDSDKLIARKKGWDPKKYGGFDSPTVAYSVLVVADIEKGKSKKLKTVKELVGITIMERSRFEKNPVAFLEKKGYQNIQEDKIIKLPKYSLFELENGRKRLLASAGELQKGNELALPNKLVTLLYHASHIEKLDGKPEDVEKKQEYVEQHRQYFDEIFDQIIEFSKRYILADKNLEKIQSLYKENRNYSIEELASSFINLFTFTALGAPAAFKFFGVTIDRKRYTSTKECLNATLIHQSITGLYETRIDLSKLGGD
Test: cell_activity; +++; HEK293T; PAM not stated
In short: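 BFP-to-GFP conversion via reverse transcriptase fusion with each Cas endonuclease plus template RNA: 200 ng of each plasmid nucleofected into 250,000 BFP-expressing HEK293T cells (program DS-150). Percent GFP+ cells by flow cytometry at day 4 measured editing.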

B1: BFP-to-GFP template RNA ; BFP reporter protospacer (ssRNA ; dsDNA)
RNA: GCCGAAGCACUGCACGCCGUGUUUUAGAGCUAGAAAUAGCAAGUUAAAAUAAGGCUAGUCCGUUAUCAACUUGAAAAAGUGGCACCGAGUCGGUGCACCCUGACGUACGGCGUGCAGUGCUU
DNA 1: GCCGAAGCACTGCACGCCGT
DNA 2: ACGGCGTGCAGTGCTTCGGC
For B1, the activity was ≥ 100 % of reference.
